Data reported in PMC5342555, “ATAD2 is an epigenetic reader of newly synthesized histone marks during DNA replication” (Oncotarget, 2016).

Experiments:
[1] = tested on: MCF7 cells; assay: EdU incorporation (DNA replication) by flow cytometry; assay type: cell-based; details: MCF7 overexpressing tagGFP-tagged ATAD2, gated by tagGFP; mean ± SEM, n = 3 independent experiments
Protocol: informed consent was obtained (Indivumed, Hamburg, by incubating cells with primary antibodies for 1 h at Germany; Asterand, Detroit USA; Provitro Berlin, RT followed by labelling with secondary antibodies Germany) of different indications. Immunohistochemistry conjugated with Alexa488 or Alexa647 for 30 min at was performed using EnVision System-HRP (DAB) from RT in dark. For analysis of TagGFP-ATAD2 expressing Dako (K4006 and K4010). Prior to immunostaining the cells GFP was stained by GFP antibody to enhance the slides were deparaffinized and rehydrated in xylene and fluorescence signal. DNA was stained by DAPI at 1 μg/ graded ethanol to distilled water. Antigen was retrieved by ml for 10 min at RT. For EdU (5-ethynyl-2'-deoxyuridine) incubating the tissue in boiling Target Retrieval Solution labelling cells were incubated in 10 μM EdU for 2h at 37 pH 6.0 (Dako S2031) for 40 min and letting them cool °C prior to fixation and staining was carried out according […]
Peroxidase-Block for 15 min at RT the slides were washed Fluor® 647 Flow Cytometry Assay Kit, ThermoFisher). twice in washing buffer (PBS with 0.05 % Tween 20) and Cells were analyzed by flow cytometry using a BD LSR incubated with primary antibodies in Antibody-Diluent II. All imaging and quantifications were performed using […]
(Dako S2022) for 90 min at RT. […]
Immunofluorescence of cells were saved for whole cell extract and the rest was subjected for subsequent fractionation. Whole cell extract […]
and fixed in 2 % FA for 10 min at RT. […] The image series were imported in Fiji and 100 % MeOH for 10 min at – 20 °C and incubated in average fluorescence was in the bleached region (F(t)ROI), […]

[2] = tested on: MCF7 cells; assay: Fluorescence recovery after photobleaching (FRAP); assay type: cell-based; details: TagGFP-tagged ATAD2 in MCF7, FRAP, 20 images; mean ± SEM
Protocol: Immunofluorescence of cells were saved for whole cell extract and the rest was subjected for subsequent fractionation. Whole cell extract
Cells were grown on Matrigel-coated coverslips and was prepared by incubating cells in ice-cold RIPA buffer fixed in 4 % formaldehyde in PBS for 15 min at RT or in (25 mM Tris·HCl pH 7.6, 150 mM NaCl, 1 % NP-40, 1 100 % methanol for 7 min at -20 °C. After removing the % sodium deoxycholate, 0.1 % SDS) supplemented with residual FA or methanol by washing in PBS cells were protease inhibitor cocktail (Roche) for 10 min on ice and permeabilized in blocking solution (10 % goat serum sonicated at medium power, 0.5 intervals in BIORUPTOR and 0.3 % Triton X-100 in PBS) for 10 min at RT and for 3 min at 4 °C. Soluble lysate was recovered by incubated with primary antibodies in blocking solution. removing insoluble fractions after centrifugation at 20000 Following the removal of unbound antibodies by washing x g for 10 min 5 to 20 μg of lysates were used for SDS gel in PBS cells were incubated with secondary antibodies electrophoresis and Western blot. conjugated with Alexa Fluor 488, 555 or 647 (Invitrogen), washed and mounted on slides in presence of DAPI for Fluorescence recovery after photobleaching visualization of nucleus. Images were acquired using an (FRAP) inverted Zeiss LSM700 confocal microscope using a 488 nm Diode-Pumped Solid State Laser with a 63X, 1.3 N.A. FRAP experiment was performed as previously oil-immersion objective. For EdU labelling cells were described with minor modifications. […]
and fixed in 2 % FA for 10 min at RT. […] The image series were imported in Fiji and 100 % MeOH for 10 min at – 20 °C and incubated in average fluorescence was in the bleached region (F(t)ROI), stain buffer with 5 % normal goat serum for 10 min at the total cell nucleus (F(t)total) and a background (F(t)BG) RT for blocking. Then indirect staining was performed were determined. The relative fluorescence intensity

B1: WT: TagGFP-tagged WT ATAD2 expressed in MCF7 cells (protein)
chain: MVVLRSSLELHNHSAASATGSLDLSSDFLSLEHIGRRRLRSAGAAQKKPAATTAKAGDGSSVKEVETYHRTRALRSLRKDAQNSSDSSFEKNVEITEQLANGRHFTRQLARQQADKKKEEHREDKVIPVTRSLRARNIVQSTEHLHEDNGDVEVRRSCRIRSRYSGVNQSMLFDKLITNTAEAVLQKMDDMKKMRRQRMRELEDLGVFNETEESNLNMYTRGKQKDIQRTDEETTDNQEGSVESSEEGEDQEHEDDGEDEDDEDDDDDDDDDDDDDDEDDEDEEDGEEENQKRYYLRQRKATVYYQAPLEKPRHQRKPNIFYSGPASPARPRYRLSSAGPRSPYCKRMNRRRHAIHSSDSTSSSSSEDEQHFERRRKRSRNRAINRCLPLNFRKDELKGIYKDRMKIGASLADVDPMQLDSSVRFDSVGGLSNHIAALKEMVVFPLLYPEVFEKFKIQPPRGCLFYGPPGTGKTLVARALANECSQGDKRVAFFMRKGADCLSKWVGESERQLRLLFDQAYQMRPSIIFFDEIDGLAPVRSSRQDQIHSSIVSTLLALMDGLDSRGEIVVIGATNRLDSIDPALRRPGRFDREFLFSLPDKEARKEILKIHTRDWNPKPLDTFLEELAENCVGYCGADIKSICAEAALCALRRRYPQIYTTSEKLQLDLSSINISAKDFEVAMQKMIPASQRAVTSPGQALSTVVKPLLQNTVDKILEALQRVFPHAEFRTNKTLDSDISCPLLESDLAYSDDDVPSVYENGLSQKSSHKAKDNFNFLHLNRNACYQPMSFRPRILIVGEPGFGQGSHLAPAVIHALEKFTVYTLDIPVLFGVSTTSPEETCAQVIREAKRTAPSIVYVPHIHVWWEIVGPTLKATFTTLLQNIPSFAPVLLLATSDKPHSALPEEVQELFIRDYGEIFNVQLPDKEERTKFFEDLILKQAAKPPISKKKAVLQALEVLPVAPPPEPRSLTAEEVKRLEEQEEDTFRELRIFLRNVTHRLAIDKRFRVFTKPVDPDEVPDYVTVIKQPMDLSSVISKIDLHKYLTVKDYLRDIDLICSNALEYNPDRDPGDRLIRHRACALRDTAYAIIKEELDEDFEQLCEEIQESRKKRGCSSSKYAPSYYHVMPKQNSTLVGDKRSDPEQNEKLKTPSTPVACSTPAQLKRKIRKKSNWYLGTIKKRRKISQAKDDSQNAIDHKIESDTEETQDTSVDHNETGNTGESSVEENEKQQNASESKLELRNNSNTCNIENELEDSRKTTACTELRDKIACNGDASSSQIIHISDENEGKEMCVLRMTRARRSQVEQQQLITVEKALAILSQPTPSLVVDHERLKNLLKTVVKKSQNYNIFQLENLYAVISQCIYRHRKDHDKTSLIQKMEQEVENFSCSR
modifications: left off: tagGFP, end not stated, kept
notes: TagGFP-tagged WT ATAD2 expressed in MCF7 cells
[1]
  EdU incorporation (normalized to control): 0.75 ± 0.03
[2]
  half recovery time (recovery t1/2): 17.740 s

B2: ATPase mut: TagGFP-tagged ATPase mutant ATAD2 (K473T, E532Q) expressed in MCF7 cells (protein)
chain: MVVLRSSLELHNHSAASATGSLDLSSDFLSLEHIGRRRLRSAGAAQKKPAATTAKAGDGSSVKEVETYHRTRALRSLRKDAQNSSDSSFEKNVEITEQLANGRHFTRQLARQQADKKKEEHREDKVIPVTRSLRARNIVQSTEHLHEDNGDVEVRRSCRIRSRYSGVNQSMLFDKLITNTAEAVLQKMDDMKKMRRQRMRELEDLGVFNETEESNLNMYTRGKQKDIQRTDEETTDNQEGSVESSEEGEDQEHEDDGEDEDDEDDDDDDDDDDDDDDEDDEDEEDGEEENQKRYYLRQRKATVYYQAPLEKPRHQRKPNIFYSGPASPARPRYRLSSAGPRSPYCKRMNRRRHAIHSSDSTSSSSSEDEQHFERRRKRSRNRAINRCLPLNFRKDELKGIYKDRMKIGASLADVDPMQLDSSVRFDSVGGLSNHIAALKEMVVFPLLYPEVFEKFKIQPPRGCLFYGPPGTGTTLVARALANECSQGDKRVAFFMRKGADCLSKWVGESERQLRLLFDQAYQMRPSIIFFDQIDGLAPVRSSRQDQIHSSIVSTLLALMDGLDSRGEIVVIGATNRLDSIDPALRRPGRFDREFLFSLPDKEARKEILKIHTRDWNPKPLDTFLEELAENCVGYCGADIKSICAEAALCALRRRYPQIYTTSEKLQLDLSSINISAKDFEVAMQKMIPASQRAVTSPGQALSTVVKPLLQNTVDKILEALQRVFPHAEFRTNKTLDSDISCPLLESDLAYSDDDVPSVYENGLSQKSSHKAKDNFNFLHLNRNACYQPMSFRPRILIVGEPGFGQGSHLAPAVIHALEKFTVYTLDIPVLFGVSTTSPEETCAQVIREAKRTAPSIVYVPHIHVWWEIVGPTLKATFTTLLQNIPSFAPVLLLATSDKPHSALPEEVQELFIRDYGEIFNVQLPDKEERTKFFEDLILKQAAKPPISKKKAVLQALEVLPVAPPPEPRSLTAEEVKRLEEQEEDTFRELRIFLRNVTHRLAIDKRFRVFTKPVDPDEVPDYVTVIKQPMDLSSVISKIDLHKYLTVKDYLRDIDLICSNALEYNPDRDPGDRLIRHRACALRDTAYAIIKEELDEDFEQLCEEIQESRKKRGCSSSKYAPSYYHVMPKQNSTLVGDKRSDPEQNEKLKTPSTPVACSTPAQLKRKIRKKSNWYLGTIKKRRKISQAKDDSQNAIDHKIESDTEETQDTSVDHNETGNTGESSVEENEKQQNASESKLELRNNSNTCNIENELEDSRKTTACTELRDKIACNGDASSSQIIHISDENEGKEMCVLRMTRARRSQVEQQQLITVEKALAILSQPTPSLVVDHERLKNLLKTVVKKSQNYNIFQLENLYAVISQCIYRHRKDHDKTSLIQKMEQEVENFSCSR
modifications: left off: tagGFP, end not stated, kept
notes: TagGFP-tagged ATPase mutant ATAD2 (K473T, E532Q) expressed in MCF7 cells
[1]
  EdU incorporation (normalized to control): 0.38 ± 0.09
[2]
  half recovery time (recovery t1/2): 2.514 s
